Holding throughout (experiment): cell_activity
The test system of one series is ZFN 12805 golden. As to conditions: pair 04.05 (with 12804), 5 ng mRNA.
For the next series, the system named is ZFN 12806 golden. As to conditions: pair 04.06 (with 12804), 5 ng mRNA.
The test system of another series is ZFN 12776 golden. The conditions noted are these: pair 75.76 (with 12775), 7 ng mRNA, golden b1 heterozygous embryos.
Another series deals with ZFN 13370 notail. The conditions noted are these: pair ntl_68 (inferred with 13368), 5 ng mRNA; 16% in pair ntl_78.
A further series relates to ZFN 12775 golden. The conditions noted are these: pair 75.76 (with 12776), 7 ng mRNA, golden b1 heterozygous embryos.
The next series relates to ZFN 13368 notail. The conditions noted are these: pair ntl_68 (inferred 13368 with 13370), 5 ng mRNA, ntl b195 het x wildtype cross.
The test system of a further series is ZFN 12804 golden. The conditions noted are these: pair 04.05 (with 12805), 5 ng mRNA; also 32% in pair 04.06.

“ACCGTCTGGATGAACCACGGCAGGCCCA (double strand) [golden 12805 target]” had an activity (% embryos with unpigmented eye clones) in the series on ZFN 12805 golden of 32.

Sequence “ACCGTCTGGATGAACCACGGCAGGCCCA (double strand) [golden 12806 target]” returned an activity (% embryos with unpigmented eye clones) with ZFN 12806 golden of 32.

In the case of “ATGCACAGCAGGTTATAGACAGCAGAAC (double strand) [golden 12776 target]”, the activity (% embryos with unpigmented eye clones) in the series on ZFN 12776 golden came out at 23.

“GCATTAGGGTCGAGACCGGTGACACTGG (double strand) [no tail 13370 target]” registered an activity (% no tail-like embryos) with ZFN 13370 notail of 27.

“GTGCAGCGTGCGGCCTGCTGTCCTCTGC (double strand) [golden 12775 target]”: the activity (% embryos with unpigmented eye clones) in the series with ZFN 12775 golden came to 23.

In the series on ZFN 13368 notail, “TGTACTCGGTCCTGCTGGATTTTGTGGC (double strand) [no tail 13368 target]” had an activity (% no tail-like embryos) of 27.

Turning to “TTGTTGACGTGGGCTCCCCGGTGGATGT (double strand) [golden 12804 target]”, in the series on ZFN 12804 golden, the activity (% embryos with unpigmented eye clones) worked out at 32.

For the origin of these results see patent US20090203140.
